Assay results from the supplement of paper PMC11865577.

What was measured:
Assay in all cases: pull-down binding Z-score (relative to library population); higher = stronger binding
Conditions in all cases: RNA library: Library-2
[1] = system: TO-3-N3 (biotin conjugate)
In short: (§1)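 An RNA library (1 μg) carrying a Cy5 or Cy3 end label was heat-folded in phosphate/NaCl/KCl buffer, then incubated for 60 min at 25 °C with streptavidin beads loaded with 100 pmol of biotin-conjugated small molecule. The beads were washed three times, and bound RNA was released in hot SDS and hybridised to a DNA barcode microarray for 20 h at 55.5 °C. Each binding score was derived by subtracting the signal from beads without compound, averaging the barcoded replicate probes after removing the highest and lowest, and expressing the result as a Z-score relative to the library mean and standard deviation.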

[2] = system: TO-3-N3-2 (biotin conjugate)
In short: as §1

[3] = system: TO-N3 (biotin conjugate)
In short: as §1

[4] = system: TO-N3-2 (biotin conjugate)
In short: as §1

Sequence | pull-down binding Z-score [1] | pull-down binding Z-score [2] | pull-down binding Z-score [3] | pull-down binding Z-score [4]
CCAGUAUCUGAAUUACUUACACCACUGGGCAUUGAUUUAGAUGAGUGGAGUAUGGCUACAUACUACUUAUUUGAUGAGUCUGGUGAGUUUAAAUUGG | -0.742 | -0.468 | -0.752 | -0.946
ACAGACUUCAUUAAGAUGUGGUGCUUGCAUACGUAGACCAUUCUUAUGUUGUAAAUGCUGUUACGACCAUGUCAUAUCAACAUCACAUAAAUUAGUCUUGUCUGU | -0.753 | -0.127 | -0.512 | -0.489
GCACCAUUAUUAUCAGCUGGUAUUUUUGGUGC | -0.619 | -0.502 | -0.921 | -1.18
AUGCCAACUAUUUUCUUUGCUGGCAU | -0.81 | -0.637 | -1.36 | -1.13
GGGUCGGUUGCUCACAAGUCCUGCCUGCCUGCCU [IAV_invivo_NP_5_Motif_15+IAV_invivo_NP_5_Motif_15] | 0.283 | 0.184 | 0.865 | 1.7
GUUUAUGAAAAACUCAAACCCGUCCUUGAUUGGCUUGAAGAGAAGUUUAAGGAAGGUGUAGAGUUUCUUAGAGAC | 0.121 | -0.241 | 0.416 | -0.0848
GGGGCCGGGGCCGGGGCCGGGGCCGGGGCCGGGGCC [G4_r(GGGGCC)8] | 4.47 | 4.66 | 3.9 | 3.77
UGGGUUGGGUUGGGUUGGGUUGGGUUGGGUUGGGUUGGGU [G4_r(UGGGU)8] | 8.92 | 10.4 | 7.56 | 5.96
AGUUUACGCCCUGACACACGUUAUGUGCUCAUGGAUGGCU | -0.721 | -0.516 | -0.719 | -0.321
UCACAGAAUGCUGUAGCCUCAAAGAUUUUGGGACUACCAACUCAAACUGUUGA | -0.508 | -0.271 | -0.673 | -0.508
AUGGUUAUCUUACUUCUUCUUCUAAAACACCUGAAGAACAUUUUAUUGAAACCAU | -0.93 | 0.0544 | -1.19 | -1.01
UAGGUGUUUUAAUGUCUAAUUUAGGCAUGCCUUCUUACUGUACUGGUUACAGAGAAGGCUAUUUGAACUCUA | -0.861 | -0.358 | -0.806 | -0.982
UAUGUCUGAAGCAAAAUGUUGGACUGAGACUGACCUUACUAAAGGACCUCAUGAAUUUUGCUCUCAACAUA | 0.0274 | -0.402 | 0.246 | -0.671
CUGUCAUGGAAGCAAGUACUGGCAG [IAV_invivo_PA_3_Motif_16+IAV_invivo_PA_3_Motif_16] | 0.591 | 0.12 | 0.596 | 0.323
ACCAUUUAAUGAUGGU [DMSMaPseq_invitro_SARS-CoV-2_Motif_383] | -0.648 | -0.365 | -1.21 | -1.7
AAAAACACCCAAGAAGUUUUU | -0.552 | -0.458 | -0.802 | -0.932
AUGGCUGAUCAAGCUAU [DMSMaPseq_invitro_SARS-CoV-2_Motif_216] | -0.238 | -0.583 | -0.208 | -0.747
